Source: the supplement of paper PMC6757056
± gives the standard deviation of the averaged measurements.

B1: library; a variant is named by its letters at N, in order (parent)
chain: GCUGUCACCGAGAAACUGUGAAGUAUAUCUUAAACCUGGGCACUUAAAAGAUAUAUGGAGUUAGUAGUGCAACCUGCUCGGUCUGAUGAGUCCNNNNNNGGACGAAACAGC

What was measured:
cyclic di-GMP [1] = variants of: B1; assay: FACS-Seq fitted mean relative fluorescence mCherry/BFP without ligand (log10 relative fluorescence); HEK293T; ligand: cyclic di-GMP (c-di-GMP-II aptamer); higher = higher reporter protein expression; settings: ligand present: no
Summary of the method: (§1)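 Fluorescence comes from a normal fit to bin counts, normalized against controls. HEK293T libraries lentivirally given a ribozyme-switch mCherry reporter and an EF1α-BFP marker were enriched, incubated 48 h with or without ligand, and sorted by mCherry/BFP into 6 bins. Bin genomic DNA was PCR-amplified, barcoded and sequenced on MiSeq. The log10(mCherry/BFP) mean was scaled to five spiked-in control ribozymes.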

cyclic di-GMP [2] = variants of: B1; assay: normalized RNA/DNA level without ligand (relative to sTRSVctl = 100) (log10 (% of sTRSVctl)); HEK293T; ligand: cyclic di-GMP (c-di-GMP-II aptamer); higher = less ribozyme self-cleavage, higher mRNA level; settings: reporter: mCherry (pCS4076), ligand present: no
Summary of the method: (§2)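 Ribozyme switch library plasmids linked to reporters were introduced into HEK293T cells at 4 µg per 6-well well, with ligand, if any, added 1 h before. Total RNA was extracted with EDTA 72 h later, reverse-transcribed, amplified, barcoded and sequenced. RNA level was computed from RNA over DNA reads relative to a spiked-in non-cleaving sequence or the top sequences, then scaled and log-transformed. The top set was 25 sequences, values were ×100 and log10, and the cutoff was ≥100 DNA reads.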

cyclic di-GMP [3] = variants of: B1; assay: FACS-Seq fitted mean relative fluorescence mCherry/BFP with ligand (log10 relative fluorescence); HEK293T; ligand: cyclic di-GMP (c-di-GMP-II aptamer); ligand concentration (+) FACS-Seq: 1 mM; higher = higher reporter protein expression; settings: ligand present: yes
Summary of the method: as §1

cyclic di-GMP [4] = variants of: B1; assay: normalized RNA/DNA level with ligand (relative to sTRSVctl = 100) (log10 (% of sTRSVctl)); HEK293T; ligand: cyclic di-GMP (c-di-GMP-II aptamer); ligand concentration (+) RNA-Seq: 1 mM; higher = less ribozyme self-cleavage, higher mRNA level; settings: reporter: mCherry (pCS4076), ligand present: yes
Summary of the method: as §2

Variant | FACS-Seq fitted mean (log10) (cyclic di-GMP [1]) | normalized RNA/DNA level without ligand (log10) (cyclic di-GMP [2]) | FACS-Seq fitted mean (log10) (cyclic di-GMP [3]) | normalized RNA/DNA level with ligand (log10) (cyclic di-GMP [4])
GUUGAG | -0.16 ± 0.072 | 1.55 ± 0.081 | 0.0985 ± 0.045 | 1.72 ± 0.11
GUUGAC | -0.0708 ± 0.036 | 1.658 ± 0.008 | 0.228 ± 0.1 | 1.79 ± 0.099
UAAAUC | – | 1.63 ± 0.033 | – | 1.79 ± 0.17
UAAAGG | – | 1.635 ± 0.0018 | – | 1.78 ± 0.088
UAAAGC | – | 1.676 ± 0.0024 | – | 1.82 ± 0.1
UAAAGU | – | 1.54 ± 0.076 | – | 1.77 ± 0.048
AAAAAG | – | 1.45 ± 0.09 | – | 1.66 ± 0.082
AAAAAA | – | 1.37 ± 0.12 | – | 1.6 ± 0.078
AAAAAC | – | 1.61 ± 0.031 | – | 1.74 ± 0.13
AAAAAU | – | 1.547 ± 0.0027 | – | 1.72 ± 0.13
AAAGAA | – | 1.34 ± 0.14 | – | 1.55 ± 0.1
AAAGAG | – | 1.44 ± 0.097 | – | 1.63 ± 0.1
AAAGUG | – | 1.52 ± 0.099 | – | 1.67 ± 0.074
AAAGUA | – | 1.42 ± 0.076 | – | 1.66 ± 0.12
GAACGC | – | 1.64 ± 0.07 | – | 1.78 ± 0.058
GAACGG | – | 1.703 ± 0.0094 | – | 1.78 ± 0.082
GACACA | – | 1.63 ± 0.018 | – | 1.77 ± 0.07
GACACG | – | 1.7112 ± 0.0013 | – | 1.82 ± 0.12
GACACC | – | 1.71 ± 0.044 | – | 1.83 ± 0.075

Variant | FACS-Seq fitted mean (log10) (cyclic di-GMP [1]) | normalized RNA/DNA level without ligand (log10) (cyclic di-GMP [2]) | FACS-Seq fitted mean (log10) (cyclic di-GMP [3]) | normalized RNA/DNA level with ligand (log10) (cyclic di-GMP [4])
UAAGCU | – | 1.7 ± 0.031 | – | 1.83 ± 0.097
UAAGCG | – | 1.75 ± 0.023 | – | 1.86 ± 0.089
UAAGCC | – | 1.78 ± 0.024 | – | 1.88 ± 0.091
UAAGCA | – | 1.75 ± 0.018 | – | 1.87 ± 0.082
UACACA | – | 1.7 ± 0.041 | – | 1.84 ± 0.083
UACACG | – | 1.76 ± 0.029 | – | 1.86 ± 0.088
UACACC | – | 1.6664 ± 0.0013 | – | 1.8 ± 0.1
CAACGU | – | 1.67 ± 0.025 | – | 1.82 ± 0.096
CAACGG | – | 1.671 ± 0.012 | – | 1.77 ± 0.061
CAACGA | – | 1.56 ± 0.063 | – | 1.73 ± 0.11
CAACGC | – | 1.757 ± 0.014 | – | 1.84 ± 0.11
CAAAGC | – | 1.717 ± 0.011 | – | 1.84 ± 0.091
CAAAGG | – | 1.59 ± 0.033 | – | 1.75 ± 0.081
AAAAUA | – | 1.48 ± 0.041 | – | 1.69 ± 0.1
CAAAAG | – | 1.656 ± 0.0082 | – | 1.77 ± 0.14
CAAUGC | – | 1.76 ± 0.076 | – | 1.83 ± 0.14
CAAUGG | – | 1.664 ± 0.0083 | – | 1.8 ± 0.087
CAAUGA | – | 1.53 ± 0.056 | – | 1.74 ± 0.12
UAAUCA | – | 1.756 ± 0.0092 | – | 1.87 ± 0.072

Variant | FACS-Seq fitted mean (log10) (cyclic di-GMP [1]) | normalized RNA/DNA level without ligand (log10) (cyclic di-GMP [2]) | FACS-Seq fitted mean (log10) (cyclic di-GMP [3]) | normalized RNA/DNA level with ligand (log10) (cyclic di-GMP [4])
UAAUCC | – | 1.8 ± 0.031 | – | 1.89 ± 0.077
GAAUGU | – | 1.579 ± 0.014 | – | 1.76 ± 0.07
GACAAU | – | 1.59 ± 0.062 | – | 1.74 ± 0.071
GACAAA | – | 1.47 ± 0.11 | – | 1.66 ± 0.077
GUUUAU | -0.2549 ± 0.0013 | 1.652 ± 0.0032 | -0.31 ± 0.34 | 1.81 ± 0.086
UAAGGU | – | 1.579 ± 0.013 | – | 1.77 ± 0.073
UAAGGG | – | 1.58 ± 0.031 | – | 1.73 ± 0.13
UAAGGC | – | 1.66 ± 0.058 | – | 1.81 ± 0.056
GUUGCG | -0.248 ± 0.029 | 1.81 ± 0.023 | 0.0336 ± 0.026 | 1.88 ± 0.092
UAACCU | – | 1.71 ± 0.031 | – | 1.86 ± 0.072
UAACCA | – | 1.74 ± 0.036 | – | 1.86 ± 0.13
UAACCG | – | 1.72 ± 0.12 | – | 1.81 ± 0.13
UAACCC | – | 1.77 ± 0.021 | – | 1.9 ± 0.08
UAACUG | – | 1.73 ± 0.017 | – | 1.84 ± 0.13
UAACUA | – | 1.688 ± 0.0017 | – | 1.82 ± 0.12
CAACUU | – | 1.49 ± 0.093 | – | 1.69 ± 0.078
CAACUC | – | 1.685 ± 0.011 | – | 1.82 ± 0.086
CAACUG | – | 1.75 ± 0.034 | – | 1.82 ± 0.13
CAACUA | – | 1.39 ± 0.069 | – | 1.6 ± 0.15
